The target in assay [1] is T1, CD47 on Jurkat cells (UniProt Q08722 19-323, limits assumed).
T1 construct: whole, on cells; also called CD47-expressing Raji cells
Briefly: flow cytometry on Jurkat cells, FITC anti-human IgG-Fc. On the procedure:
(§1) Cells were washed with cold PBS twice, and then incubated with FITC-conjugated secondary antibody against human IgG-Fc (Cat #F9512, Sigma) for 45 min. Cells were washed twice and re-suspended in […] PBS. Then, the cells were subject to FACS analysis using a flow cytometer (Merck Millipore, Guava® easyCyte 5HT).
For orientation: Flow cytometry measures light scatter and fluorescence of single cells or particles in a stream.

In assay [2] the target is T2, PD-L1 on CHO cells expressing human PD-L1 (CHO-PDL1) (human, UniProt Q9NZQ7 19-290).
T2 construct: whole, on cells; Species is stated as human for the CHO-PDL1 cells; also called CHO-PD-L1 cells; Raji-PD-L1 cells
Briefly: flow cytometry on CHO-PD-L1 cells, FITC anti-human IgG-Fc. As for the experimental part: as §1

Assay [3] concerns the target T1, CD47 on Jurkat cells. Briefly: flow cytometry competition; blocks FITC-SIRPα-Fc (80 nM) on PD-L1- CD47+ Raji cells. As for the experimental part: The mixtures were added to a 96-well plate containing PD-L1⁻ or PD-L1⁺ CD47-expressing Raji cells, and the plate was incubated at 4° C. for 45 minutes.
The target in assay [4] is T2, PD-L1 on CHO cells expressing human …. Briefly: flow cytometry competition; blocks Biotin-hPD1-mFc (1 µg/ml) on CD47- PD-L1+ CHO cells. On the procedure: Cells were incubated at 4° C. for 45 minutes, washed with PBS, and then further incubated at 4° C. for another 45 minutes with PE-conjugated mouse Anti-human CD279 (Cat #557946, BD BioScience).

T2 sequence (Q9NZQ7 19-290): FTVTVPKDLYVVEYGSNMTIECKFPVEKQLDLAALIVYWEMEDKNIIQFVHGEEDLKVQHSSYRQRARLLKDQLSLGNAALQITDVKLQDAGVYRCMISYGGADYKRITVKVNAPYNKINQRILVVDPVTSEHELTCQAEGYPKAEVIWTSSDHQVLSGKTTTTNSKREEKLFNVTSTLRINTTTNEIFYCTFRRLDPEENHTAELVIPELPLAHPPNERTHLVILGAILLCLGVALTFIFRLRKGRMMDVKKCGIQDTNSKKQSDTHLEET

B1: IMM2521 (bispecific antibody, human IgG1, kappa)
heavy: QVQLVQSGAEVKKPGASVKVSCKASGYTFTSNWMHWVRQAPGQGLEWMGMIHPNSGSSNYNEKFKSRVTMTRDTSTSTVYMELSSLRSEDTAVYYCARSYYGSSPYYFDYWGQGTLVTVSSASTKGPSVFPLAPSSKSTSGGTAALGCLVKDYFPEPVTVSWNSGALTSGVHTFPAVLQSSGLYSLSSVVTVPSSSLGTQTYICNVNHKPSNTKVDKRVEPKSCDKTHTCPPCPAPELLGGPSVFLFPPKPKDTLMISRTPEVTCVVVDVSHEDPEVKFNWYVDGVEVHNAKTKPREEQYNATYRVVSVLTVLHQDWLNGKEYKCKVSNKALPAPIAATISKAKGQPREPQVYTLPPSREEMTKNQVSLTCLVKGFYPSDIAVEWESNGQPENNYKTTPPVLDSDGSFFLYSKLTVDKSRWQQGNVFSCSVMHEALHNHYTQKSLSLSPGK
light: not shown
notes: SIRPαD1 mutant linked through the linker to the N-terminus of each light chain of IMM2515; also called recombinant fusion protein IMM2521; PD-L1×CD47 bispecific
On to B1, for which the EC50 (in general, the concentration at which the effect is half-maximal) was 700 pM in the assay with CD47 on Jurkat cells [1] and 110 pM in assay [2]. Besides, the figures for the IC50 (with CD47 on Jurkat cells [3]; in assay [4]) were 140000 pM and below 1000 pM, respectively.

B2: IMM2515 (antibody, human IgG1, kappa, V domains shown)
VH: QVQLVQSGAEVKKPGASVKVSCKASGYTFTSNWMHWVRQAPGQGLEWMGMIHPNSGSSNYNEKFKSRVTMTRDTSTSTVYMELSSLRSEDTAVYYCARSYYGSSPYYFDYWGQGTLVTVSS
VL: DIQMTQSPSSLSASVGDRVTITCRASQDIINYLNWYQQKPGKAPKLLIYYTSRLHSGVPSRFSGSGSGTDFTFTISSLQPEDIATYYCQQGDTLPWTFGQGTKVEIKR
notes: also called monoclonal anti-PD-L1 antibody; monospecific anti-PD-L1 antibody IMM2515
Regarding B2, in assay [4], the IC50 (as a rule, the concentration at which inhibition is half-maximal) is below 1000 pM.

The record behind these values is US20230083670A1 (IMMUNEONCO BIOPHARMACEUTICALS SHANGHAI, published 2023).
